From US8673313B2, “Cell penetrating peptides and its use fused to biomolecules with therapeutic action” (priority 2007, dated 2014)

How the values were obtained:
[1] = tested on: TC-1 tumor cell line expressing the HPV16 E7 protein; assay: Treatment of established TC-1 tumors in mice (Example 8); format: in vivo, Mice C57BL/6; conditions: two immunizations every 14 days from day 10, volume at the 30 days, p<0.01 vs E7, LALF and PBS, FIG. 7
Text: In order to observe the regression of established tumors from the treatment with the recombinant protein fusion LALF-E7, the tumor cell line TC-1, was used. The TC-1 tumor cell line expressing the HPV16 E7 protein was derived from primary lung cells of C57Bl/6 mice by immortalization and transformation with HPV16 E6 and E7 genes and an activated human C-Ha-ras gene as described in Lin et al. (1996)) Treatment of established tumors with a novel vaccine that enhances major histocompatibility class II presentation of tumor antigen. Cancer Res. 56:21-26. For tumor inoculation, TC-1 cells, supplied by Dr. T.-C. Wu (The Johns Hopkins Medical Institutions, Baltimore, Md.), were grown to 60-70% confluence in RPMI1640 medium supplemented with 10% fetal calf serum (Hyclone, Logan, Utah), nonessential amino acids, glutamine, pyruvate, gentamycin, beta-mercaptoethanol and 0.4 mg/mL Geneticin at 37° C. Cells were harvested by trypsinization and resuspended in Hank's buffer solution at […].
Mice C57BL/6 was inoculated with 2×10^5 cells by subcutaneous injection in right leg in volumes of 0.2 mL. […] The tumor kinetic in the different groups was followed by the tumor volume which was determined using electronic calipers and taking the measures in two orthogonal dimensions. Tumor volumes (mm^3) were calculated from these measurements according to (length×width^2)/2. […]

[2] = tested on: J774 cells; assay: Western blot: internalization of the cargo protein E7 to the cell; format: cell-based; conditions: 25 μM protein, J774, 4 hours at 37° C., FIG. 5
Protocol: The cells J774 grown overnight at 37° C. and 5% of CO2 with RPMI 1640, 10% inactivated calf fetal serum and 2 mM de glutamine. After that, the cell were aliquoted in tubes with 5×10^6 cells each and incubated with 25 μM of fusion protein LALF-E7, 25 μM of protein E7 and PBS during 4 hours at 37° C. The sedimentation of the cells was made by a centrifugation to 1000 rpm by 10 minutes. Wash pellet in three changes of PBS. Cells were ruptured in 100 μL of RIPA buffer (Promega) mixed in vortex per 10 second and 2 min in ice. The sedimentation of the broken cells was made by a centrifugation to 12000 rpm by 15 minutes. Protein concentration was determined to the cell extract and rum 10 μg of total protein in 15% polyacrilamide gel. Subsequently the gel was transferred to a nitrocellulose membrane. The membrane was incubated for 2 hours at room temperature with an IgG goat polyclonal antibody anti-E7 HPV 16 (Santa Cruz) diluted in PBS (1:100). Wash in three changes of PBS. Subsequently, the membrane was incubated for 45 minutes at room temperature and in a dark room with an anti-goat IgG peroxidase conjugate (Sigma) diluted in PBS (1:5000). Wash in three changes of PBS. Finally the ECL system from Amersham Pharmacia Biotech was used.

B1: LALF-E7: recombinant fusion of CPP LALF to E7 protein of HPV 16, cysteine per glycine in Rb site (SEQ ID N0. 9 y 10) (protein)
chain: MAEFHYRIKPTFRRLKWKYKGKFWKASHGDTPTLHEYMLDLQPETTDLYGYEQLNDSSEEEDEIDGPAGQAEPDRAHYNIVTFCCKCDSTLRLCVQSTHVDIRTLEDLLMGTLGIVCPICSQKPGSRAHHHHHH
modifications: Artificial Sequence Description Protein fusion CPP LALF-E7
- effect on growth of established tumors (tumor volume) [1]: full inhibition of growth of established tumors
- detection of protein in cell extract by anti-E7 antibody (Western blot) [2]: recognized by the anti-E7 antibody
